Assay results: article PMC6365055, “High resolution cryo-EM structure of the helical RNA-bound Hantaan virus nucleocapsid reveals its assembly mechanisms” (eLife, 2019)

Tests used:
[1] = target: the molecule itself; experiment: negative stain EM
[2] = target: the molecule itself; experiment: cryo-EM structure

Protein | binding result [1] | binding result [2]
NP_(74-429) construct obtained by trypsin limited proteolysis of HTNV-NC (domain or fragment, also called truncated construct NP_(74-429)) NLGKEQDPTGVEPGDHLKERSMLSYGNVLDLNHLDIDEPTGQTADWLSIIVYLTSFVVPILLKALYMLTTRGRQTTKDNKGTRIRFKDDSSFEDVNGIRKPKHLYVSLPNAQSSMKAEEITPGRYRTAVCGLYPAQIKARQMISPVMSVIGFLALAKDWSDRIEQWLIEPCKLLPDTAAVSLLGGPATNRDYLRQRQVALGNMETKESKAIRQHAEAAGCSMIEDIESPSSIWVFAGAPDRCPPTCLFIAGIAELGAFFSILQDMRNTIMASKTVGTSEEKLRKKSSFYQSYLRRTQSMGIQLGQRIIVLFMVAWGKEAVDNFHLGDDMDPELRTLAQSLIDVKVKEISNQEPLKL | binds | 
Hantaan virus nucleoprotein, recombinant full-length (natural protein, also called HTNV-NP; NP) MATMEELQREINAHEGQLVIARQKVRDAEKQYEKDPDELNKRTLTDREGVAVSIQAKIDELKRQLADRIATGKNLGKEQDPTGVEPGDHLKERSMLSYGNVLDLNHLDIDEPTGQTADWLSIIVYLTSFVVPILLKALYMLTTRGRQTTKDNKGTRIRFKDDSSFEDVNGIRKPKHLYVSLPNAQSSMKAEEITPGRYRTAVCGLYPAQIKARQMISPVMSVIGFLALAKDWSDRIEQWLIEPCKLLPDTAAVSLLGGPATNRDYLRQRQVALGNMETKESKAIRQHAEAAGCSMIEDIESPSSIWVFAGAPDRCPPTCLFIAGIAELGAFFSILQDMRNTIMASKTVGTSEEKLRKKSSFYQSYLRRTQSMGIQLGQRIIVLFMVAWGKEAVDNFHLGDDMDPELRTLAQSLIDVKVKEISNQEPLKL |  | binds
